Test results reported in US20260209320A1 (ALCHEMAB THERAPEUTICS, published 2026).
Where no end group is shown, it is not given here.

Legend:
[1] = target: T1, Mutant Human HTT Exon 1 48Q (GST) (human); assay: HTT sandwich ELISA, experiment 2 (400 nM starting concentration)
T1 construct: recombinant His- and GST-tagged fusion; also called HTT Exon 1 Q48; 48Q HTT Exon-1

[2] = target: T2, biotinylated GYSLPQPQPPPPPPPPPP peptide (also: biotinylated, position not given here); assay: BLI (Octet), biotinylated peptide on streptavidin biosensor
T2 construct: also called HTT exon1 in the form of biotinylated peptide
T2 peptide: GYSLPQPQPPPPPPPPPP

[3] = target: T1, Mutant Human HTT Exon 1 48Q (GST); assay: HTT sandwich ELISA, experiment 1 (133 nM starting concentration)
[4] = target: T1, Mutant Human HTT Exon 1 48Q (GST); assay: HTT sandwich ELISA
[5] = target: T1, Mutant Human HTT Exon 1 48Q (GST); assay: ELISA
[6] = target: T1, Mutant Human HTT Exon 1 48Q (GST); assay: HTT sandwich ELISA; remark: listed apart in the source
human lysozyme = target: T3, human lysozyme (human, UniProt P61626 19-148); assay: direct ELISA
T3 sequence (looked up): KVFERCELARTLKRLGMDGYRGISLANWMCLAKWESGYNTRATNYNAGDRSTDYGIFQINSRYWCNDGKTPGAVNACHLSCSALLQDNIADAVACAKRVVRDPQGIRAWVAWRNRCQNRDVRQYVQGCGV

T1 sequence (chain, as listed by the source mutant limits assumed): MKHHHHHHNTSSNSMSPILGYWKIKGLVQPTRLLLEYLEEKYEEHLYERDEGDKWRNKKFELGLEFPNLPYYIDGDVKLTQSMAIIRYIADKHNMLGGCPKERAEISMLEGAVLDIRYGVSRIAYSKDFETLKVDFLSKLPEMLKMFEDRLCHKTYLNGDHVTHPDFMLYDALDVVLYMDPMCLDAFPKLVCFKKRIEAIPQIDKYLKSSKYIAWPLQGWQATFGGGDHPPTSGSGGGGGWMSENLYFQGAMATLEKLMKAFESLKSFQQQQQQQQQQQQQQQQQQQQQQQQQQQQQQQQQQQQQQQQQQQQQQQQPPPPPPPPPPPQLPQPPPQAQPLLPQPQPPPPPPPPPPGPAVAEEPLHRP

B1: ATL_0006195 (antibody, V domains shown)
VH: EVQLVESGGGLVKPGGSLRLSCAASGFTFNKAWMSWVRQAPGKGLEWVGRIKSGIDAGTTDYAAPVKGRFTISRDDSKNTLYLQMNSLKTEDTAVYYCTPPPYYYYYGLDVWGQGTTVTVSS
VL: QSALTQPRSVSGSPGQSVTISCTGTSSDVGSYNLVSWYQQHPGKAPKLMIYEVNKRPSGVPDRFSGSKSGATASLTISGLQAEDEADYYCGSYAGTANVFGTGTKVTVL
notes: expressed in IgG1 format; also called ATL_6195
EC50 [1]: 14.7 nM
binding result [2]: binds
EC50 [3]: 21.1 nM

B2: ATL_0006183 (antibody, V domains shown)
VH: EVQLVESGGGLVKPGGSLRLSCAASGFTFNKAWMSWVRQAPGKGLEWVGRIKSGIDAGTTDYAAPVKGRFTISRDDSKNTLYLQMNSLKTEDTAVYYCTPPPYYYYGLDVWGQGTTVTVSS
VL: QSALTQPRSVSGSPGQSVTISCTGTSSDVGSYNLVSWYQQHPGKAPKLMIYEVNKRPSGVPDRFSGSKSGATASLTISGLQAEDEADYYCGSYAGTANVFGTGTKVTVL
notes: HD patient (ENBB) HCDR3 in ATL5895 VH, ATL5895 VL; also called ATL_6183; ATL6183
EC50 [4]: 9.2 nM

B3: ATL_0006194 (antibody, V domains shown)
VH: EVQLVESGGGLVKPGGSLRLSCAASGFTFNKAWMSWVRQAPGKGLEWVGRIKSGIDAGTTDYAAPVKGRFTISRDDSKNTLYLQMNSLKTEDTAVYYCVPPPYYYYYGLDVWGQGTTVTVSS
VL: QSALTQPRSVSGSPGQSVTISCTGTSSDVGSYNLVSWYQQHPGKAPKLMIYEVNKRPSGVPDRFSGSKSGATASLTISGLQAEDEADYYCVSYAGTANVFGTGTKVTVL
notes: expressed in IgG1 format; also called ATL_6194; ATL6194
EC50 [1]: 14 nM
binding result [2]: binds
EC50 [3]: 19.8 nM

B4: ATL_0005334 (antibody, V domains shown)
VH: EVQLVESGGGLVKPGGSLRLSCAASGFTFNKAWMNWVRQAPGKGLEWVGRIKSGIDGGTTDYAAPVQGRFTISRDDSKNTVYLQMNSLNTEDTAVYYCIPPPYYYYYGLDVWGQGTTVTVSS
VL: QSALTQPASVSGSPGQSITISCTGTSSDVGGYKLVSWYQQHPGRAPKLMIYEVSKRPSGVSSRFSGSKSGSTASLTISGLQAEDEADYYCCSYAGSSVVFGGGTKLTVL
notes: human IgG1; also called ATL_5334
binding result [5]: binds

B5: ATL_0006204 (antibody, V domains shown)
VH: EVQLVESGGGLVKPGGSLRLSCAASGFTFNKAWMSWVRQAPGKGLEWVGRIKSGIDAGTTDYAAPVKGRFTISRDDSKNTLYLQMNSLKTEDTAVYYCIPPPYYYYYGLDVWGQGTTVTVSS
VL: QSALTQPRSVSGSPGQSVTISCTGTSSDVGSYNLVSWYQQHPGKAPKLMIYEVNKRPSGVPDRFSGSKSGATASLTISGLQAEDEADYYCVSFAGTANVFGTGTKVTVL
notes: expressed in IgG1 format; also called ATL_6204
EC50 [1]: 12.2 nM
binding result [2]: binds
EC50 [3]: 16.2 nM

B6: ATL_0006375 (antibody, V domains shown)
VH: EVQLVESGGGLVKPGGSLRLSCAASGFTFNKAWMSWVRQAPGKGLEWVGRIKSGIDAGTTDYAAPVKGRFTISRDDSKNTLYLQMNSLKTEDTAVYYCVPPPYYYYYGLDVWGQGTTVTVSS
VL: QSALTQPRSVSGSPGQSVTISCTGTSSDVGSYNLVSWYQQHPGKAPKLMIYEVNKRPSGVPDRFSGSKSGATASLTISGLQAEDEADYYCVSYGGTENVFGTGTKVTVL
notes: also called ATL_6375
EC50 [6]: 20.1 nM

B7: ATL_0006378 (antibody, V domains shown)
VH: EVQLVESGGGLVKPGGSLRLSCAASGFTFNKAWMSWVRQAPGKGLEWVGRIKSGIDAGTTDYAAPVKGRFTISRDDSKNTLYLQMNSLKTEDTAVYYCVPSPYYYYYGLDVWGQGTTVTVSS
VL: QSALTQPRSVSGSPGQSVTISCTGTSSDVGSYNLVSWYQQHPGKAPKLMIYEVNKRPSGVPDRFSGSKSGATASLTISGLQAEDEADYYCVSYGGTENVFGTGTKVTVL
notes: also called ATL_6378; ATL 6378
EC50 [6]: 38.9 nM

B8: ATL_0006377 (antibody, V domains shown)
VH: EVQLVESGGGLVKPGGSLRLSCAASGFTFNKAWMSWVRQAPGKGLEWVGRIKSGIDAGTTDYAAPVKGRFTISRDDSKNTLYLQMNSLKTEDTAVYYCVPSPYYYYYGLDVWGQGTTVTVSS
VL: QSALTQPRSVSGSPGQSVTISCTGTSSDVGSYNLVSWYQQHPGKAPKLMIYEVNKRPSGVPDRFSGSKSGATASLTISGLQAEDEADYYCVSYAGTANVFGTGTKVTVL
notes: also called ATL_6377
binding result (human lysozyme): no binding (tested: less than 1 µM)
EC50 [6]: 23.8 nM

B9: ATL_0006205 (antibody, IgG1, V domains shown)
VH: EVQLVESGGGLVKPGGSLRLSCAASGFTFNKAWMSWVRQAPGKGLEWVGRIKSGIDAGTTDYAAPVKGRFTISRDDSKNTLYLQMNSLKTEDTAVYWCVPPPYYYYYGLDVWGQGTTVTVSS
VL: QSALTQPRSVSGSPGQSVTISCTGTSSDVGSYNLVSWYQQHPGKAPKLMIYEVNKRPSGVPDRFSGSKSGATASLTISGLQAEDEADYYCVSYAGTANVFGTGTKVTVL
notes: IgG1 format; also called ATL_6205
EC50 [1]: 16.4 nM
binding result [2]: binds
EC50 [3]: 13.4 nM

B10: ATL_0006202 (antibody, IgG1, V domains shown)
VH: EVQLVESGGGLVKPGGSLRLSCAASGFTFNKAWMSWVRQAPGKGLEWVGRIKSGIDAGTTDYAAPVKGRFTISRDDSKNTLYLQMNSLKTEDTAVYYCSPPPFYYYYGLDVWGQGTTVTVSS
VL: QSALTQPRSVSGSPGQSVTISCTGTSSDVGSYNLVSWYQQHPGKAPKLMIYEVNKRPSGVPDRFSGSKSGATASLTISGLQAEDEADYYCVSYGGTENVFGTGTKVTVL
notes: IgG1 format; also called ATL_6202
EC50 [1]: 13.5 nM
binding result [2]: binds

B11: ATL_0006200 (antibody, V domains shown)
VH: EVQLVESGGGLVKPGGSLRLSCAASGFTFNKAWMSWVRQAPGKGLEWVGRIKSGIDAGTTDYAAPVKGRFTISRDDSKNTLYLQMNSLKTEDTAVYYCVPPPYYYYYGLDVWGQGTTVTVSS
VL: QSALTQPRSVSGSPGQSVTISCTGTSSDVGSYNLVSWYQQHPGKAPKLMIYEVNKRPSGVPDRFSGSKSGATASLTISGLQAEDEADYYCGSYAGTANVFGTGTKVTVL
notes: expressed in IgG1 format; also called ATL_6200
EC50 [1]: 9.75 nM
binding result [2]: binds
EC50 [3]: 12.8 nM

B12: ATL_0006185 (antibody, V domains shown)
VH: EVQLVESGGGLVKPGGSLRLSCAASGFTFNKAWMSWVRQAPGKGLEWVGRIKSGIDAGTTDYAAPVKGRFTISRDDSKNTLYLQMNSLKTEDTAVYYCTPPPYYYYGLNVWGQGTTVTVSS
VL: QSALTQPRSVSGSPGQSVTISCTGTSSDVGSYNLVSWYQQHPGKAPKLMIYEVNKRPSGVPDRFSGSKSGATASLTISGLQAEDEADYYCGSYAGTANVFGTGTKVTVL
notes: HD patient (ENBB) HCDR3 in ATL5895 VH, ATL5895 VL; also called ATL_6185; ATL6185
EC50 [4]: 7.31 nM

B13: ATL_0006199 (antibody, V domains shown)
VH: EVQLVESGGGLVKPGGSLRLSCAASGFTFNKAWMSWVRQAPGKGLEWVGRIKSGIDAGTTDYAAPVKGRFTISRDDSKNTLYLQMNSLKTEDTAVYWCSPPPYYYYYGLDVWGQGTTVTVSS
VL: QSALTQPRSVSGSPGQSVTISCTGTSSDVGSYNLVSWYQQHPGKAPKLMIYEVNKRPSGVPDRFSGSKSGATASLTISGLQAEDEADYYCGSYAGTANVFGTGTKVTVL
notes: expressed in IgG1 format; also called ATL_6199
EC50 [1]: 13.1 nM
binding result [2]: binds
EC50 [3]: 15 nM

B14: ATL_0006376 (antibody, V domains shown)
VH: EVQLVESGGGLVKPGGSLRLSCAASGFTFNKAWMSWVRQAPGKGLEWVGRIKSGIDAGTTDYAAPVKGRFTISRDDSKNTLYLQMNSLKTEDTAVYYCVPPPFYYYYGLDVWGQGTTVTVSS
VL: QSALTQPRSVSGSPGQSVTISCTGTSSDVGSYNLVSWYQQHPGKAPKLMIYEVNKRPSGVPDRFSGSKSGATASLTISGLQAEDEADYYCVSYGGTENVFGTGTKVTVL
notes: also called ATL_6376
binding result (human lysozyme): no binding (tested: less than 1 µM)
EC50 [6]: 11.5 nM

B15: ATL_0006374 (antibody, V domains shown)
VH: EVQLVESGGGLVKPGGSLRLSCAASGFTFNKAWMSWVRQAPGKGLEWVGRIKSGIDAGTTDYAAPVKGRFTISRDDSKNTLYLQMNSLKTEDTAVYWCVPPPYYYYYGLDVWGQGTTVTVSS
VL: QSALTQPRSVSGSPGQSVTISCTGTSSDVGSYNLVSWYQQHPGKAPKLMIYEVNKRPSGVPDRFSGSKSGATASLTISGLQAEDEADYYCVSYGGTENVFGTGTKVTVL
notes: also called ATL_6374; ATL 6374
EC50 [6]: 31.1 nM
binding result [2]: binds

B16: ATL_0006203 (antibody, V domains shown)
VH: EVQLVESGGGLVKPGGSLRLSCAASGFTFNKAWMSWVRQAPGKGLEWVGRIKSGIDAGTTDYAAPVKGRFTISRDDSKNTLYLQMNSLKTEDTAVYYCIPSPYYYYYGLDVWGQGTTVTVSS
VL: QSALTQPRSVSGSPGQSVTISCTGTSSDVGSYNLVSWYQQHPGKAPKLMIYEVNKRPSGVPDRFSGSKSGATASLTISGLQAEDEADYYCVSYAGTANVFGTGTKVTVL
notes: expressed in IgG1 format; also called ATL_6203
EC50 [1]: 8.72 nM
binding result [2]: binds
EC50 [3]: 8.91 nM

B17: ATL_0006184 (antibody, V domains shown)
VH: EVQLVESGGGLVKPGGSLRLSCAASGFTFNKAWMSWVRQAPGKGLEWVGRIKSGIDAGTTDYAAPVKGRFTISRDDSKATLYLQMNSLKTEDTAVYYCTPPPYYYYGLDVWGQGTTVTVSS
VL: QSALTQPASVSGSPGQSITISCTGTSSDVGGYKLVSWYQQHPGRAPKLMIYEVSKRPSGVSSRFSGSKSGSTASLTISGLQAEDEADYYCSSYAGSSVVFGGGTKLTVL
notes: HD patient (ENBB) HCDR3 in ATL5901 VH, ATL5901 VL; also called ATL_6184; ATL6184
EC50 [4]: 10.1 nM

B18: ATL_0006186 (antibody, V domains shown)
VH: EVQLVESGGGLVKPGGSLRLSCAASGFTFNKAWMSWVRQAPGKGLEWVGRIKSGIDAGTTDYAAPVKGRFTISRDDSKATLYLQMNSLKTEDTAVYYCTPPPYYYYGLNVWGQGTTVTVSS
VL: QSALTQPASVSGSPGQSITISCTGTSSDVGGYKLVSWYQQHPGRAPKLMIYEVSKRPSGVSSRFSGSKSGSTASLTISGLQAEDEADYYCSSYAGSSVVFGGGTKLTVL
notes: HD patient (ENBB) HCDR3 in ATL5901 VH, ATL5901 VL; also called ATL_6186; ATL6186
EC50 [4]: 11.1 nM
